The values that follow come from publication PMC6445127, “WNT5A is transported via lipoprotein particles in the cerebrospinal fluid to regulate hindbrain morphogenesis” (Nature Communications, 2019).

The assay deals with T1, human native APOJ (human, UniProt P10909 23-227; P10909 228-449).
T1 construct: Apolipoprotein J (Clusterin), human, native; also called isolated APOJ protein; Clusterin; source: bought: Biovendor (RD162034025)
Put plainly: co-IP; in vitro protein binding assay: 2 μg human native APOJ incubated with 150 ng recombinant WNT5A in 200 μl binding buffer (50 mM Tris pH 7.6, 100 mM NaCl, 1 mM EDTA) overnight at 4 °C; precipitated with corresponding antibody or IgG on DynaBeads; washes with 0.5% NP40. Conditions: both partners purified.

T1 sequence (P10909 23-227, chain 1 of 2): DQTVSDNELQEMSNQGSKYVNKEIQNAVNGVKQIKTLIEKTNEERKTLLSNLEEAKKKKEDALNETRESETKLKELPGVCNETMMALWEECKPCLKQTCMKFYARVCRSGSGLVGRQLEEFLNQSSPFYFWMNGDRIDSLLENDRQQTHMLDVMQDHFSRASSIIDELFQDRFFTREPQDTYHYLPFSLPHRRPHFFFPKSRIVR
T1 sequence (P10909 228-449, chain 2 of 2): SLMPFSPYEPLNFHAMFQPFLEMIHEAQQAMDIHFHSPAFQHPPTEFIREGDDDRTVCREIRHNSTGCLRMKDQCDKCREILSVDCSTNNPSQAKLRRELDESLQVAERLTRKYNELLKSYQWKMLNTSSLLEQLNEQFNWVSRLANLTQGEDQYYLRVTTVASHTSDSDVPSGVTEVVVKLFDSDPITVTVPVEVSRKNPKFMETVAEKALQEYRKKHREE

B1: recombinant WNT5A (ligand, UniProt P22725 62-380, looked up)
chain: IIGAQPLCSQLAGLSQGQKKLCHLYQDHMQYIGEGAKTGIKECQYQFRHRRWNCSTVDNTSVFGRVMQIGSRETAFTYAVSAAGVVNAMSRACREGELSTCGCSRAARPKDLPRDWLWGGCGDNIDYGYRFAKEFVDARERERIHAKGSYESARILMNLHNNEAGRRTVYNLADVACKCHGVSGSCSLKTCWLQLADFRKVGDALKEKYDSAAAMRLNSRGKLVQVNSRFNSPTTQDLVYIDPSPDYCVRNESTGSLGTQGRLCNKTSEGMDGCELMCCGRGYDQFKTVQTERCHCKFHWCCYVKCKKCTEIVDQFVCK
notes: recombinant WNT5A, R&D Systems; 'P22725' is printed where a catalogue number would stand; elsewhere the catalogue number 645-WN-010 is printed; WNT5A'; also called rcWNT5A; rcWnt5a; source: bought: R&D Systems
Take B1: the binding result is reported as “binds”.
